Experimental findings from patent publication US20170174769A1 (Regeneron, published 2017) are described below.

Positions count from the first letter of the chain named. Names may count otherwise.

T1: full-length human KLB on HEK293/hKLB/SRE-luc cells (human, UniProt Q86Z14 1-1044)
T1 construct: amino acids 1-1044 of NP_783864.1
T1 sequence: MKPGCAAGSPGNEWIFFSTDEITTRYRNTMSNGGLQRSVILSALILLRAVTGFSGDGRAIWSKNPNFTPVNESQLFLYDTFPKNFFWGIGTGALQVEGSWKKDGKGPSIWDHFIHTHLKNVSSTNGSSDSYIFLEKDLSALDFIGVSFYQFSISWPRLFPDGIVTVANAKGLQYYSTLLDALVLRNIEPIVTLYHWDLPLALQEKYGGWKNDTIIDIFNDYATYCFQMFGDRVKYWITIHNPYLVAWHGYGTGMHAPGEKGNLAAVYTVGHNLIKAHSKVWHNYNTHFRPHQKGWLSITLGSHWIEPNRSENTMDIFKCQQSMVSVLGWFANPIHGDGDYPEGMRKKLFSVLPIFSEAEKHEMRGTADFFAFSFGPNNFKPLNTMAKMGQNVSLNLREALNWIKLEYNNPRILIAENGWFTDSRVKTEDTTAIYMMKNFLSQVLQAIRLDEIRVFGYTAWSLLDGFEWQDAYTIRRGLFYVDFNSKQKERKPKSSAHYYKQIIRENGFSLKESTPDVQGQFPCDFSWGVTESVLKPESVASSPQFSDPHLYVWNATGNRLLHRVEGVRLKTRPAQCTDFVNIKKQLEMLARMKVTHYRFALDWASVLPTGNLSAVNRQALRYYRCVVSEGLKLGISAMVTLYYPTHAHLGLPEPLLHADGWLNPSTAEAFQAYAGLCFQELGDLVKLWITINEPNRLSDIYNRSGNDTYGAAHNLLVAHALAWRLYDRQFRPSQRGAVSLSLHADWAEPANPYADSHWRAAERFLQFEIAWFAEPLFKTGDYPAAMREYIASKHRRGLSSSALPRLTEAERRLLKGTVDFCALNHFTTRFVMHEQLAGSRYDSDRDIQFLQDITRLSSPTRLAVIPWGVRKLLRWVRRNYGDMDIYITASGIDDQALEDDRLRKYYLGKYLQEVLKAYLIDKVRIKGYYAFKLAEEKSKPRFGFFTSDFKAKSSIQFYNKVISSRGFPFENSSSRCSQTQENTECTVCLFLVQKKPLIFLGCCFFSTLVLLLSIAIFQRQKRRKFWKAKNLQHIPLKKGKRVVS

T2: extracellular domain of human FGFR1c expressed with C-terminal V5 and hexahistidine tags (human, UniProt P11362 22-376)
T2 construct: also called hFGFR1c-V5-6His
T2 sequence: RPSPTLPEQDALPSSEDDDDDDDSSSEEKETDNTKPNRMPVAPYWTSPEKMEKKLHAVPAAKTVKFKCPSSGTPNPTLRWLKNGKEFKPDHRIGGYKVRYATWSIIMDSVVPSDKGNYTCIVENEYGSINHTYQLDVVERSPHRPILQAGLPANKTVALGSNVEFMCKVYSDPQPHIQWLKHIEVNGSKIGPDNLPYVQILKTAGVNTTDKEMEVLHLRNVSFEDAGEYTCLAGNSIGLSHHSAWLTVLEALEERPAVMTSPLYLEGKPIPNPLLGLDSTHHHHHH

B1: H2aM8832N (antibody, V domains shown)
VH: QVQLVESGGGVVQPGRSLRLSCAASGFTFSRYGMHWVRQAPGKGLEWVAVIWYDGTNKYYEDSLKGRFTISRDNSKNTLYLQMNSLRAEDSAVYYCARDQGKYIDYWGQGTLVTVSS
VL: AIQMTQSPSSLSASVGDRVTITCRTSQDIRNDLGWYQQKPGKVPNLLIYAASTLQSGVPSRFSGSGSGTDFTLTISSLQPEDFATYYCLQDYNYPFTFGPGTKVDIK
notes: mouse IgG2 Fc (H2aM prefix)
B2: H2aM8092N (antibody, V domains shown)
VH: QVQLQESGPGLVKPSETLSLTCTVSGGSISSYYWSWIRQPPGKGLDWIGHIYYSGTTYYNPSLKSRVSISLDTSKNQFSLKLSSVTAADTAVYYCARHLRGYSSGREFDYWGQGTLVTVSS
VL: DIQMTQSPSSLSASVGGRVSLTCRASQSIFSYLNWYQQKPGKAPKLLIYAASNLQSGVPSRFSGSGSGTDFTLTISSLQPEDFATYSCQQSYNIPYTFGQGTKLEIK
notes: mouse IgG2 Fc (H2aM prefix); also called H2M8092N
B3: H2aM8093N (antibody, V domains shown)
VH: QVQLVQSGAEVKRPGSSVKVSCKASGDTFSTYAISWVRQAPGQGLEWMGGIIPVFGTTNYAQKFQDRVTITTDESTRTAYMELSSLRSEDTAVYYCAGIAGPDYWGQGTLVTVSS
VL: DIQMTQSPSSLSASVGDRVTITCRASQGIRNYLAWFQQKPGKAPKSLIYLATSLQSGVPSKFSGSGSGTDFTLTISSLQPEDFATYYCQQYYSYPWTFGQGTKVEIK
notes: mouse IgG2 Fc (H2aM prefix)
B4: H2aM8109N (antibody, V domains shown)
VH: QVQVVESGGGVVQPGRSLRLSCAASGFTFSSYGLHWVRQAPGKGLEWVAVIWHDGSHKYYADSVKGRFTISRDNSKNTLYLQMNSLRAEDTAVYYCARDGIPVAEDYYFYGMDVWGQGTTVTVSS
VL: DIQMTQSPSSLSASVGDRVTITCRASQGIRNDLGWYQQKPGKAPKRLIYAASSLQSGVPSRFSGSGSGTEFTLTISSLQPEDFAIYYCLQHNSLTFGGGTKVEIK
notes: mouse IgG2 Fc (H2aM prefix)
B5: H2aM8091N (antibody, V domains shown)
VH: QVQLVQSGADMKKPGASVKVSCKASGYTFTTYGINWVRQAPGQGLEWMGWISAYSGITNYAQSFQGRVTMTTDTSTSTAYMELRSLRSDDTAVYYCARGGYNWATGDYFDYWGQGTLVTVSS
VL: DIQMTQSPSTLSASIGDRVTITCRASQSISSWLAWYQQKPGKAPKFLIYKASSLASGVPSRFSGSGSGTEFTLTISSLQPDDFATYYCQQYDSYSPYTFGQGTKVEIK
notes: mouse IgG2 Fc (H2aM prefix); also called H2M8091N
B6: H1M8115N (antibody, V domains shown)
VH: QVQLVQSGAEVKKPGSSVKVSCKASGGTFSTYEISWVRQAPGQGLEWMGGIIPVFGTTHYAQKFQDSVTITTDESTGTAFMELSSLKSEDTAVYYCARGGAGGDNWGQGTLVTVSS
VL: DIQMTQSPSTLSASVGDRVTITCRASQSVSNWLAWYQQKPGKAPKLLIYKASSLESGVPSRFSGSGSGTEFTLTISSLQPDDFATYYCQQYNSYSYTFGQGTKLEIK
notes: H1M Fc prefix (mouse Fc)
B7: H4H8837P (antibody, V domains shown)
VH: QVQLVESGGGVVQPGRSLRLSCAASGFTFNSYAMHWVRQAPGMGLEWVAVISSDGSNKYYADSVRGRFTVSRDNSKNTLYLQMNSLRSEDTAVYYCAKDGRGYSSFSHFGMDVWGQGTTVTVSS
VL: DIQMTQSPSTLSASVGDRVTITCRASQSIGSWLAWYQQKPGKAPKLLIYKTSSLESGVPSRFSGSGSGTEFTLTISSLQPDDFASYYCQQYNSYSFGQGTKVEIK
notes: human IgG4 Fc (H4H prefix)
B8: H4H8852P (antibody, V domains shown)
VH: QVQLQESGPGLVKPSETLSLTCTVSGGSISSYYWSWIRQPPGKGLEWIGYIYSSGIIKYNPSLKSRVTISADTSKNQFSLKLSSVTAADTAVYYCARHGIFGVMEYFQRWGQGTLVTVSS
VL: DIQMTQSPSSLSASIGDRVTITCQASQDIGNFLNWYQQKPGKAPTLLIYDASNMETGVPSRFSGSGSGTYFTFTISSLQPEDVATYYCQQYDNLPLTFGGGTKVEIK
notes: human IgG4 Fc (H4H prefix)
B9: H4H8871P (antibody, V domains shown)
VH: B8 VH with G27A
VL: B8 VL with Q37H, S63R, T74I
notes: human IgG4 Fc (H4H prefix)
B10: H4H8856P (antibody, V domains shown)
VH: B8 VH with G49A, S53Y, I57T
VL: B8 VL with G30S, A51V, S67Y, Y70D, F73L, Q79K, V83I, L94I
notes: human IgG4 Fc (H4H prefix)
B11: H4H8878P (antibody, V domains shown)
VH: QVQLVESGGGVVQPGRSLRLSCAASGFTLNTYGMHWIRQTPGKGLEWVSLISYDETKEYYVDSVKGRFTISRDNSKNTLYLQMNSVRVEDTAVYYCAKPLTGSTDYYYGLDVWGQGTTVTVSS
VL: DIQMTQSPSYVSASVGDRVIITCRASQDISSWLAWYQQKPGKAPKLLIYVTSSLESGVPSRFSGSGSGTDFTLTISGLQPEDFATYYCQQVKSFPPTFGPGTKVDIK
notes: human IgG4 Fc (H4H prefix)

One assay deals with T3, full-length human FGFR1c on HEK293/hFGFR1c/SRE-luc cells (human, UniProt P11362 22-822).
T3 construct: amino acids 1-733 of NP_075593
T3 sequence (P11362 other isoform, or with tags, fused parts or gaps limits assumed): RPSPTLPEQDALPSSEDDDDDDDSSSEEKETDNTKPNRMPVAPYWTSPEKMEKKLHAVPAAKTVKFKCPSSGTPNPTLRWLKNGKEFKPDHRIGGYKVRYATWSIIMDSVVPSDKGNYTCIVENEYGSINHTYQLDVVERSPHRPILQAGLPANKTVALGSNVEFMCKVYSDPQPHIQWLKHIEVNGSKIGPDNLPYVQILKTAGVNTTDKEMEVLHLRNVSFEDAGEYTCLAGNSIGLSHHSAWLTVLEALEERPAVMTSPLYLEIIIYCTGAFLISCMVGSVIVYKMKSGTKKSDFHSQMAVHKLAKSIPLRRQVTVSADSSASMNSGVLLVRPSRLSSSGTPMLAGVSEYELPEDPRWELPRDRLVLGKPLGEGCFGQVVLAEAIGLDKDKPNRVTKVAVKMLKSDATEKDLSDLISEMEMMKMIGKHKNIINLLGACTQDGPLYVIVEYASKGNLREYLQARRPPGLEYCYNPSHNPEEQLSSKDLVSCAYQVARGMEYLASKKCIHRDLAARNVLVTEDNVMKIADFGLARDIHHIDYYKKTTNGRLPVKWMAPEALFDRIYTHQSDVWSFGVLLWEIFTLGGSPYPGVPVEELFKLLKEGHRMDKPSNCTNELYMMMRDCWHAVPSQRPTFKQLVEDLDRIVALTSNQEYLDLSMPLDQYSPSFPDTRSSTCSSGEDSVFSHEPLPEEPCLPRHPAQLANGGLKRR
The assay is described as follows: FACS on stable HEK293 cells. In outline:
(§1)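 HEK293 cells stably expressing full-length human FGFR1c with an SRE-luciferase reporter, alongside parental, hKLB and hKLB/hFGFR1c lines, stained with anti-KLB/FGFR1c antibodies in PBS with 1% FBS and analyzed by flow cytometry. Geometric mean fluorescence of viable cells was normalized to unstained cells to give binding ratios.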
Take B1: the “binding ratio to unstained cells” value is 6 fold.
For the molecule B2, the “binding ratio to unstained cells” value is 1 fold.
On the same count and under the same terms, then B3, with 1 fold; and B4, with 7 fold; and B5, with 1 fold.
On the same count and under the same terms, the value for B6 was 2 fold; that for B7 was 2 fold.
Same read-out and setting: the value for B8 was 1 fold; that for B9 was 1 fold; that for B10 was 1 fold.
B11: the “binding ratio to unstained cells” value was 2 fold.

The target in another assay is T1, full-length human KLB on …. Kind of assay: FACS on stable HEK293 cells. In a few lines:
as §1
On to B1, for which the “binding ratio to unstained cells” value is 2 fold.
Still for that read-out and setting: the value for B2 was 15 fold; that for B3 was 15 fold; that for B4 was 21 fold.
B5: the “binding ratio to unstained cells” value came out at 8 fold.
Same read-out and setting: then B6, with 13 fold.
On to B7, for which the “binding ratio to unstained cells” value turned out to be 13 fold.
As to B8, the “binding ratio to unstained cells” value came to 7 fold.
Consider B9, for which the “binding ratio to unstained cells” value worked out at 7 fold.
Consider B10, for which the “binding ratio to unstained cells” value is 5 fold.
The same measure, in the same setting: the value for B11 was 11 fold.

In the next assay the target is T2, extracellular domain of human FGFR1c …. Kind of assay: SPR, mAb captured, 25 C. As to the method: Equilibrium dissociation constants (KD values) for human KLB or human FGFR1c binding to purified anti-KLB/FGFR1c monoclonal antibodies were determined using a real-time surface plasmon resonance biosensor using a Biacore T-200 or 4000 instrument. The Biacore sensor surface was derivatized by amine coupling with either a polyclonal rabbit anti-mouse antibody (GE, # BR-1008-38) or with a monoclonal mouse anti-human Fc antibody (GE, # BR-1008-39) to capture anti-KLB/FGFR1c monoclonal antibodies expressed with either a mouse Fc or a human Fc, respectively. All Biacore binding studies were performed in a buffer composed of 0.01M HEPES pH 7.4, 0.15M NaCl, 3mM EDTA, 0.05% v/v Surfactant P20 (HBST running buffer). […] Association of hKLB-HA-6His or hFGFR1c-V5-6His to the captured monoclonal antibody was monitored for 3.5 to 4 minutes and the dissociation of hKLB-HA-6His or hFGFR1c-V5-6His in HBST running buffer was monitored for 8-12 minutes. All the binding kinetics experiments were performed at 25° C. or 37° C. Kinetic association (kₐ) and dissociation (kd) rate constants were determined by fitting the real-time sensorgrams to a 1:1 binding model using Scrubber 2.0c curve fitting software. Binding dissociation equilibrium constants (KD) and dissociative half-lives (t½) were calculated from the kinetic rate constants as: […]
(In general: SPR reads the build-up and loss of mass on a sensor chip optically.)
On to B1, for which the “180 nM hFGFR1c-V5-6His Bind (RU)” value came out at 5.8 RU.
Still for that read-out and setting: then B2, with -1.3 RU; and B3, with -1.2 RU.
Take B4: the “180 nM hFGFR1c-V5-6His Bind (RU)” value is -0.7 RU.
With B5, the “180 nM hFGFR1c-V5-6His Bind (RU)” value was -0.8 RU.
Still for that read-out and setting: the value for B6 was -1.8 RU.
Turning to B7, the “180 nM hFGFR1c-V5-6His Bind (RU)” value was found to be 0.2 RU and the binding result is given as “no binding (tested: 180 nM)”.
The matching figures for B8: 0 RU and “no binding (tested: 180 nM)”.
For the molecule B9, the “180 nM hFGFR1c-V5-6His Bind (RU)” value was determined as 0.4 RU.
Regarding B10, the “180 nM hFGFR1c-V5-6His Bind (RU)” value worked out at 0.1 RU and the binding result is given as “no binding (tested: 180 nM)”.
With B11, the “180 nM hFGFR1c-V5-6His Bind (RU)” value stood at 0.4 RU and the binding result is on record as “no binding (tested: 180 nM)”.
